The record followed here is patent publication US8530213B2, “Compositions and methods for using NADH oxidases” (Georgia Tech Research Corporation, priority 2009, dated 2013).

Series [1] can be described thus: NOX5 mutants assayed at the cell lysate level, NADH activity. The format is biochemical. How it is done:
(§1) Standard assays were performed at 25° C. in 100 mM TEA buffer (pH 7.5) with 5 mM DTT in cuvettes with either a 1 cm or 1 mm path length, depending on the concentration of substrate. Initial activity was measured by following the absorbance change using a Beckman Coulter DU 800 UV/Vis spectrophotometer at 340 nm. Activity of the enzyme was calculated using an extinction coefficient of NAD(P)H, ε, as 6.22 mM^−1 cm^−1. Unless otherwise noted, a substrate concentration of 0.2 mM NADPH was used for assays. 1 unit (U) of activity is defined as […].
(§2) Single mutations were done on residues G178 and L179 into K, R and K, R, H respectively, and double mutations were also investigated with different combinations of the single mutations. The mutation of G178H was excluded due to the fact that the enzyme would then have two histidines next to each other, creating steric hindrance in the binding pocket. The resulting mutants were expressed on small scale and assayed at the cell lysate level.

Series [2] can be described thus: NOX5 mutants assayed at the cell lysate level, NADPH activity. The format is biochemical. As for the experimental part:
as §1, §2

B1: L179H: NADH oxidase derived from Lactobacillus plantarum, L179H mutant (protein, listed as Lactobacillus plantarum)
chain: MKVIVIGCTHAGTAAVNQILASNPDTEVTIYERNDNVSFLSCGIALYLGGQVADPQGLFYSSPEQLAKLGATVHMQHDVTDVNTDKHEITVTDLKTGESKTDHYDKLVVTTGSWPVIPPIDGIDSPNVYLCKNWTHAQNLWEAAKPAKRVIVIGGGYIGTELVEAYQKQGKEVTLIDGHPRILNKYLDKEFTDRVEQDFVDHGIKMALNQMVQGFSDDGKEVTVKTDKGSYTADMAILCVGFRPNTGLLKGKVDMNANGSIKTNDYMQTSDPDIYGAGDSVAVHYNPTKKDAYIPLATNAVRQGTLVGLNIFKPTRKYMGTQSTSGLMLFGQTIVSSGMTLEHAQAENVPAAAVTFEDNYRPEFMPTTKPVLMQLVYNPETREILGAQFMSEHDVSQSANVISVMIQNHNTIDDLGFVDMFFQPIYDRPFNYLNLLGQAAIAHAAEAVTE
Turning to B1, the NADH activity in series [1] came to 1.37 U/mg. For the same molecule, the NADPH activity in series [2] came out at 0.64 U/mg.

B2: G178K/L179R: NADH oxidase derived from Lactobacillus plantarum, G178K/L179R mutant (protein, listed as Lactobacillus plantarum)
chain: MKVIVIGCTHAGTAAVNQILASNPDTEVTIYERNDNVSFLSCGIALYLGGQVADPQGLFYSSPEQLAKLGATVHMQHDVTDVNTDKHEITVTDLKTGESKTDHYDKLVVTTGSWPVIPPIDGIDSPNVYLCKNWTHAQNLWEAAKPAKRVIVIGGGYIGTELVEAYQKQGKEVTLIDKRPRILNKYLDKEFTDRVEQDFVDHGIKMALNQMVQGFSDDGKEVTVKTDKGSYTADMAILCVGFRPNTGLLKGKVDMNANGSIKTNDYMQTSDPDIYGAGDSVAVHYNPTKKDAYIPLATNAVRQGTLVGLNIFKPTRKYMGTQSTSGLMLFGQTIVSSGMTLEHAQAENVPAAAVTFEDNYRPEFMPTTKPVLMQLVYNPETREILGAQFMSEHDVSQSANVISVMIQNHNTIDDLGFVDMFFQPIYDRPFNYLNLLGQAAIAHAAEAVTE
On to B2, for which the NADH activity in series [1] is 2.00 U/mg. Moreover, the NADPH activity in series [2] was 5.68 U/mg.

B3: G178K/L179K: NADH oxidase derived from Lactobacillus plantarum, G178K/L179K mutant (protein, listed as Lactobacillus plantarum)
chain: MKVIVIGCTHAGTAAVNQILASNPDTEVTIYERNDNVSFLSCGIALYLGGQVADPQGLFYSSPEQLAKLGATVHMQHDVTDVNTDKHEITVTDLKTGESKTDHYDKLVVTTGSWPVIPPIDGIDSPNVYLCKNWTHAQNLWEAAKPAKRVIVIGGGYIGTELVEAYQKQGKEVTLIDKKPRILNKYLDKEFTDRVEQDFVDHGIKMALNQMVQGFSDDGKEVTVKTDKGSYTADMAILCVGFRPNTGLLKGKVDMNANGSIKTNDYMQTSDPDIYGAGDSVAVHYNPTKKDAYIPLATNAVRQGTLVGLNIFKPTRKYMGTQSTSGLMLFGQTIVSSGMTLEHAQAENVPAAAVTFEDNYRPEFMPTTKPVLMQLVYNPETREILGAQFMSEHDVSQSANVISVMIQNHNTIDDLGFVDMFFQPIYDRPFNYLNLLGQAAIAHAAEAVTE
Regarding B3, the NADH activity in series [1] is on record as 0.84 U/mg. Further, the NADPH activity in series [2] is 3.11 U/mg.

B4: G178K/L179H: NADH oxidase derived from Lactobacillus plantarum, G178K/L179H mutant (protein, listed as Lactobacillus plantarum)
chain: MKVIVIGCTHAGTAAVNQILASNPDTEVTIYERNDNVSFLSCGIALYLGGQVADPQGLFYSSPEQLAKLGATVHMQHDVTDVNTDKHEITVTDLKTGESKTDHYDKLVVTTGSWPVIPPIDGIDSPNVYLCKNWTHAQNLWEAAKPAKRVIVIGGGYIGTELVEAYQKQGKEVTLIDKHPRILNKYLDKEFTDRVEQDFVDHGIKMALNQMVQGFSDDGKEVTVKTDKGSYTADMAILCVGFRPNTGLLKGKVDMNANGSIKTNDYMQTSDPDIYGAGDSVAVHYNPTKKDAYIPLATNAVRQGTLVGLNIFKPTRKYMGTQSTSGLMLFGQTIVSSGMTLEHAQAENVPAAAVTFEDNYRPEFMPTTKPVLMQLVYNPETREILGAQFMSEHDVSQSANVISVMIQNHNTIDDLGFVDMFFQPIYDRPFNYLNLLGQAAIAHAAEAVTE
In the case of B4, the NADH activity in series [1] came to 1.24 U/mg. Besides, the NADPH activity in series [2] turned out to be 3.85 U/mg.
